Measurements from the supplement of paper PMC9170038.

What was measured:
[1] = system: K4 kissing-loop RNA reporter; experiment: apparent KD of K4 kissing-loop reporter; higher = weaker reporter binding; settings: Eterna round: R107;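 further: bound reporter read as fluorescence of individual clusters on recovered sequencing chips by microscopy, with normalized cluster intensities fitted with a binding model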
Method: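 RNA-MaP round R107: designed RNA switches with theophylline, tryptophan, arginine or FMN aptamers are transcribed on-chip within common flanks. They are titrated with a labelled K4 kissing-loop RNA reporter in RNA-MaP buffer (100 mM Tris pH 7.5, 80 mM KCl, 4 mM MgCl2), without ligand or with the indicated ligand. Median apparent KD per design.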

MS2 coat protein = experiment: apparent KD of MS2 coat protein; designed switch direction (-1 OFF switch, 1 ON switch): -1; higher = weaker reporter binding
Procedure, shortened: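 Designed RNA switches with common flanks were transcribed on Illumina chips by stalled E. coli RNA polymerase and titrated with SNAP-549-labelled MS2 coat protein, from 0.7 or 1.5 nM doubling to 3 µM, in Tris-HCl pH 7.5 buffer with KCl, MgCl2, BSA, DTT, tRNA and Tween-20. Steps lasted 0.8–1.5 h (lowest) to 10–20 min (highest). Titrations ran without input, with 200 uM small-molecule ligand, or with an oligonucleotide input. Normalised cluster fluorescence was curve-fitted, and apparent KD is the per-design median over clusters.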

[2] = input ligand: theophylline 20 uM
[3] = input ligand: tryptophan 2.4 mM
[4] = Eterna round: R95, input ligand: microRNA oligo, concentration not stated
[5] = Eterna round: R95, input ligand: FMN 200 uM
[6] = Eterna round: R95, input ligand: none

Sequence	apparent KD of K4 kissing-loop reporter ([1]; input ligand: FMN 200 uM) [nM]	apparent KD of K4 kissing-loop reporter ([1]; input ligand: arginine 13.2 mM) [nM]	apparent KD of K4 kissing-loop reporter ([1]; input ligand: none) [nM]	apparent KD of K4 kissing-loop reporter [1, 2] [nM]	apparent KD of K4 kissing-loop reporter [1, 3] [nM]	apparent KD of MS2 coat protein (MS2 coat protein; [4]) [nM]	apparent KD of MS2 coat protein (MS2 coat protein; input ligand: FMN 200 uM) [nM]	apparent KD of MS2 coat protein (MS2 coat protein; input ligand: none) [nM]	apparent KD of MS2 coat protein (MS2 coat protein; [5]) [nM]	apparent KD of MS2 coat protein (MS2 coat protein; [6]) [nM]
UUCUUGAUGGAAACAUCGAGGAUCACUGAUACCAGUAUCGAUAGAUACCCUUGGCAGCAGUGUCGGUGGUCACGAGUGAUGUUCG [Ex Theophylline A K4 12]	718	731	811	719	787	–	–	–	–	–
AAAUUCUUUUUUUUAUUUAACUUUUCAGAAGGAGCGUGGUAGUACACAGGUAGGUCGCUGAAUUUUAGACUAGUGAUGUUAGUUA [JR_SSArginiA_Sub008]	130	156	190	182	151	–	–	–	–	–
UGCCGGGCUGUACGUUACUUAAAUCGCGAUACCAGCGAUACAAUCCGCCCUUGGCAGCGCAGUGAUGUUGCGCGGUCAUUACGGG [theeternabot_exclusion_KL_Theo_A_27]	100	90.5	95.8	103	91.4	–	–	–	–	–
GGGAGGAUUAAAUAAAUAAAUAAGAUAGAUACCAGUUGAGAGUAAGGCCCUUGGCAGCUAAAACGAGUGAUGUUCGAGUAAAUCC [Default title]	81.6	88.8	63	147	62.4	–	–	–	–	–
CCAGGAUGAUGAGGAUGAUAAAUUACUGAAGGAGCGCAUAUGGUUGCAGGUAGGUCGCGGUGAAUAAGUAUAGUGAUGUUAUGCC [SSArgA.Y]	970	612	561	801	761	–	–	–	–	–
UAUAAGCGCAGAGGAUAUACUAGCUUUCACUAGUGCAGUGAUGUUGCACUAGACCAGCUGUACAUAGUAGAAGGCUGCGUUCCUU [FMN B SS t1]	89.1	116	112	131	117	–	–	–	–	–
GGCGUCAAACCAGAACUAGUGAUGUUGGUUCGAGGACCGGUACGGCCGCCACUCGAUCUCUUGGUCCAUCGCGGAAGGGCAGCGG [theeternabot_exclusion_KL_Trp_A_29]	511	369	532	414	622	–	–	–	–	–
AGGCACGAGCAAGGAUAUCGAGUAGAGUGAUGUUCUGCCUGGGUUGGCUCGUAAGGGCCUUCCCAGCGAGAAGGUGCUCGUGCCU [#2 Same State - FMN A Attempt #15 (HarryS)]	221	632	877	581	757	–	–	–	–	–
UAUUUAAUGUCAGGAUAUCGUAUACGAGUGAUGUUCGUAUUUCUACUAUAGAUUAUUUAAAUUUUUCGAGAAGGGACAAUAUUUA [KL-SSFMN-B4]	177	208	193	186	158	–	–	–	–	–
UGGAUAUAGUGAUGUUAUAUAGAGAGGGAUACCAGUUUAGAGAAGAACCCUUGGCAGCCUAAAGAAGUAUCAUUAGAGAAGAAUG [ExTheophyl.An]	370	229	253	324	241	–	–	–	–	–
UAACUCUUGCAGUGAUGUUGCAAGUAAGCUCAGGAUAUCAGGAAACUGAGAAGGGAGCAUCCUGAGCUUCUGCAAGAGCUCAGAA [KL-SSFMN-A4]	254	152	184	217	189	–	–	–	–	–
UUUAUAAAGUCGGCCGCCACUGGAUUUAUAUUUGUUUAAUCUGGAUCAAAGUGAUGUUUUGAGUCCAGGACCGGGACAUUUGUUA [JR_ExcTryptoB_Sub002]	125	123	124	135	232	–	–	–	–	–
GACGGGUUGCUGCUCAAUCCGUCGCAUGAUCGAGGACCGGUACGGCCGCCACUCGAGGCCAUGCCGUACGAGUGAUGUUCGUGCG [Xeerlaus]	387	327	324	388	190	–	–	–	–	–
AUGAGGUGACUAAAUAAUAAGGGAAUUGAUACCAGACAGAAUUCUGUCCCUUGGCAGCAGUGAUGUUGUUGCAAGUCAGCUCAAA [AK1.1 Exc Theophylline A]	265	186	206	198	212	–	–	–	–	–
AGAUCUGUAACAGAUACCAGAGGACGAUGAUCGGACAGUGAUGUUAUCUGUCAGUCGUCGCUCCCUUGGCAGCUGUUACAGAUCA [Omei KL Theo B SS B v3]	78.1	43.1	73.7	94.9	65.2	–	–	–	–	–
UAGCUCUACAGAAGGAGCGACGUUCUUAGACAGUGAUGUUGUCUAUAGUGAAUAUAGGAACGUCAGGUAGGUCGCUGUAGAGCUA [Arg B SS t11]	213	160	200	189	164	–	–	–	–	–
CAAUUCCGAGGAUAUACAUGAGGAUCACCCAUGUCGGGCCUCAGCGUUUAGCGCCUCAGUAGAAGGCGGGUUUC [JL Riri mod 3] (puzzle: Exclusion 3)	–	–	–	–	–	24.4	–	–	–	–
GUUAUCGCAGGAUAUUAGUACUUGUACAUGAGGAUCACCCAUGUUUAUUGGGUCUAAGAAUAAGAAGGGCGAUGAA [JR_Ex5_Sub005] (Eterna round: R97, puzzle: Exclusion 5)	–	–	–	–	–	–	105	32	–	–
UCUAGACAUGAGGAUCACCCAUGUGAGGAUAUGAUGCGAAUAAAGAAAGAAGAAAGCAUCAGAAGGCACAUAUG [Fiskers Ex 1 - 3] (puzzle: Exclusion 1)	–	–	–	–	–	116	–	–	210	191
AGUAGUUGUUUCCGUUCUUACAUGAGGAUCACCCAUGUUUCUUGUCGUGCUCGCGUUGCUCGUCAGACUACCAGAUG [salish99_TOv1_r3_060] (puzzle: Sensor v3, turn-off variant 1)	–	–	–	–	–	57.8	–	–	51.1	75.8
AGAUUACGAGGAUAUCGAUUUUAGUACAUGAGGAUCACCCAUGUUAUCCAGGUCUCGUUUCGAGAAGGCGUGAUUC [LRO-Ex5-07] (puzzle: Exclusion 5)	–	–	–	–	–	196	–	–	–	–
